Source: patent US9193963B2, “Mutant endoglucanase” (Toray Industries, Inc., priority 2011, dated 2015)
Substitutions are numbered along the chain they refer to.

B1: EGPh Wild-type: Pyrococcus horikoshii-derived endoglucanase, SEQ ID NO: 1, parent endoglucanase (protein)
chain: MEGNTILKIVLICTILAGLFGQVVPVYAENTTYQTPTGIYYEVRGDTIYMINVTSGEETPIHLFGVNWFGFETPNHVVHGLWKRNWEDMLLQIKSLGFNAIRLPFCTESVKPGTQPIGIDYSKNPDLRGLDSLQIMEKIIKKAGDLGIFVLLDYHRIGCTHIEPLWYTEDFSEEDFINTWIEVAKRFGKYWNVIGADLKNEPHSVTSPPAAYTDGTGATWGMGNPATDWNLAAERIGKAILKVAPHWLIFVEGTQFTNPKTDSSYKWGYNAWWGGNLMAVKDYPVNLPRNKLVYSPHVYGPDVYNQPYFGPAKGFPDNLPDIWYHHFGYVKLELGYSVVIGEFGGKYGHGGDPRDVIWQNKLVDWMIENKFCDFFYWSWNPDSGDTGGILQDDWTTIWEDKYNNLKRLMDSCSKSSSSTQSVIRSTTPTKSNTSKKICGPAILIILAVFSLLLRRAPR
modifications: Pyrococcus horikoshii EGPh
B2: EGPh Mutant: mutant EGPh, SEQ ID NO: 2; 273rd tryptophan substituted with alanine (protein)
chain: B1 chain with W273A
modifications: Pyrococcus horikoshii EGPh W273A
notes: 273rd tryptophan substituted with alanine
B3: EGSt Wild-type: Spirochaeta thermophile-derived endoglucanase, SEQ ID NO: 37, parent endoglucanase (protein)
chain: MKYLRTILLSLLVFLITLGCSLPFLDVSGKGGTAARATELRVGRLTGVNWFGFETGNHVVHGLWARDYKSMLKQIADLGFNCIRIPWANEMIDKAPNSIQINPSGVDPYTGEQGLNLDLEGLSSLEVLDKIIEEANRLGLYVILDNHSRAADGYMNETLWYTDEYPEERWISDWVMMVRRYKNYPNVIGADLNNEPHGNTGTGMKPPATWGYTLPEYGDTDWKAAAERCAAAILAENPNLYIIVEGVEEYQGDTYWWGGNLKGVRDYPITSIPAENLIYSPHEYGPEVYNQSWFSDPTFPDNMPAIWDEHFWFIYKENIAPVLIGEFGIKEASAADPSSVAYQWFTTFMAYVGDKASWTFWSWNPNSGDTGGILKDDWVTVNEAKYNLIRPYLANPPQPTATPTPTGTPTPTPTPTPTPTPTPTPTPTPTPTATPTPTPTPTPTPTPTPTATPTPSGEYTEIALPFSYDGAGEYYWKTDQFSTDPNDWSRYVNSWNLDLLEINGTDYTNVWVAQHQIPAASDGYWYIHYKSGVSWGHVEIK
modifications: Spirochaeta thermophila EGSt
B4: EGSt Mutant: mutant EGSt, SEQ ID NO: 38; residue corresponding to 273rd tryptophan substituted with alanine (protein)
chain: B3 chain with W257A
modifications: Spirochaeta thermophila EGSt W257A
notes: residue corresponding to 273rd tryptophan substituted with alanine

Assays:
[1] = Saccharification of lignocellulose 3 with Trichoderma reesei culture solution and endoglucanase; type: biochemical, Rice straw; details: Lignocellulose 3, 24 hours; cellulase 1.0 mg/mL + endoglucanase 0.1 mg/mL + β-glucosidase (Novozyme 188) 0.01 mg/mL
Description: (§1) Rice straw was used as cellulose. The cellulose was immersed in water, and then autoclaved with agitation at 180° C. for 20 minutes (Nitto Koatsu Co. Ltd.). Pressure at this time was 10 MPa. After treatment, a solution component (hereinafter, referred to as “hydrothermally treated solution”) and the treated biomass component were subjected to solid-liquid separation by centrifugation (3000 G). The thus treated biomass component was used as lignocellulose 3 for the following examples.
(§2) The changes in the amount of glucose generated when the enzyme composition had been caused to act on lignocellulose substrates were compared. The substrates were prepared by suspending 5 wt % lignocelluloses (1 to 3) (prepared in Reference Example 3) in 50 mM acetate buffer (pH5.2). Reactions were performed at 50° C. for 24 hours. The concentrations of the generated glucose were measured after adequate sampling. As a filamentous bacterium-derived cellulase mixture, commercially available Trichoderma reesei-derived cellulase (Celluclast, Sigma) was used. As endoglucanases, the mutant endoglucanases prepared in Example 2 and the wild-type endoglucanases prepared in Reference Example 1 were separately used. The following quantities of enzymes were added: 1.0 mg/mL cellulase, and 0.1 mg/mL endoglucanase (in an amount one tenth that of the cellulase).
(§3) Lignocelluloses (1-3) prepared in Reference Example 3 were used as substrates. The Trichoderma reesei culture solution prepared in Reference Example 4 was used as a filamentous bacterium-derived cellulase mixture. Lignocelluloses (1-3) were hydrolyzed in a manner similar to that in Example 7, except for the quantities of the enzymes added: cellulase (1.0 mg/mL); endoglucanase (0.1 mg/mL (in an amount one tenth that of the cellulase); and β-glucosidase (Novozyme 188) (0.01 mg/mL (in an amount one hundredth that of the cellulase).

[2] = Saccharification of lignocellulose 2 with Trichoderma reesei culture solution and endoglucanase; type: biochemical, Rice straw; details: Lignocellulose 2, 24 hours; cellulase 1.0 mg/mL + endoglucanase 0.1 mg/mL + β-glucosidase (Novozyme 188) 0.01 mg/mL
Description: (§4) Rice straw was used as cellulose. Cellulose was immersed in a 1% aqueous sulfuric acid solution, and then autoclaved for 30 minutes at 150° C. (Nitto Koatsu Co. Ltd.). After treatment, the resultant was subjected to solid-liquid separation into an aqueous sulfuric acid solution (hereinafter, referred to as “dilute-sulfuric-acid-treated solution”) and cellulose treated with sulfuric acid. Next, the cellulose treated with sulfuric acid was mixed and agitated with the dilute-sulfuric-acid-treated solution so that the solid content concentration was 10 wt %. Then the mixture was adjusted to around pH 5 using sodium hydroxide. The resultant was used as lignocellulose 2 for the following examples.
as §2, §3

[3] = Saccharification of lignocellulose 1 with Trichoderma reesei culture solution and endoglucanase; type: biochemical, Rice straw; details: Lignocellulose 1, 24 hours; cellulase 1.0 mg/mL + endoglucanase 0.1 mg/mL + β-glucosidase (Novozyme 188) 0.01 mg/mL
Description: (§5) Rice straw was used as cellulose. The cellulose was added to a small reactor (Taiatsu Techno Corporation, TVS-N2 (30 ml)), and then cooled with liquid nitrogen. An ammonia gas was fed to the reactor, thereby completely immersing the sample in the liquid ammonia. The reactor was closed using its lid, and then left to stand at room temperature for 15 minutes. Subsequently, treatment was performed for 1 hour in an oil bath at 150° C. After treatment, the reactor was removed from the oil bath, an ammonia gas leak was immediately performed within a draft chamber. The reactor was vacuumed using a vacuum pump to 10 Pa for drying. The resultant was used as lignocellulose 1 in the following examples.
as §2, §3

[4] = Activity to degrade phosphoric acid swollen cellulose; type: biochemical
Description: The term “identity” refers to the percentage of amino acid residues identical to and amino acid residues analogous to the other amino acid residues in all the amino acid residues overlapped when an optimum alignment is performed by introducing gaps or no gaps into two amino acid sequences and then aligning the two amino acid sequences. Such an identity can be found using a method known by persons skilled in the art, sequence analysis software, and the like (a known algorithm such as BLAST or FASTA). The term “endoglucanase activity” is as defined above and can be determined by adding an enzyme solution to a substrate solution of phosphoric acid swollen cellulose that has been dissolved in 50 mM acetic acid-sodium acetate buffer (pH 5.2) or the like, performing 1 hour of reaction at 30° C. to 85° C., stopping the reaction by changing the pH if necessary, and then determining the concentration of glucose in the reaction solution using a glucose determination kit, for example.
The mutants obtained in Comparative Example 1 were compared in terms of activity by a technique similar to that in Example 3. The concentration (g/L) of glucose generated by each parent endoglucanase under the above reaction conditions was determined to be 100%.

[5] = Inhibition experiment with vanillin: degradation of phosphoric acid swollen cellulose; type: biochemical; details: enzyme 0.5 μM, 1 hour, 50° C., parent at 0 mM = 100%
Description: This substance was diluted using buffer and water to obtain a 2 wt % mixture so that the final concentration of sodium acetate was 50 mM (pH 5.2). This was designated as phosphoric acid swollen cellulose and used for the following examples.
The activity of the wild-type and the mutant endoglucanases to degrade phosphoric acid swollen cellulose in the presence of vanillin was measured. 1% phosphoric acid swollen cellulose/50 mM acetate buffer (pH 5.2) was used as a substrate. Vanillin (Sigma Aldrich) was added at final concentrations of 0, 5, 10, and 15 mM. The enzymes prepared in Reference Example 1 and Example 2 were added at a final concentration of 0.5 μM, followed by 1 hour of enzymatic reaction at 50° C.

[6] = Inhibition experiment with ferulic acid: degradation of phosphoric acid swollen cellulose; type: biochemical; details: enzyme 0.5 μM, 1 hour, 50° C., parent at 0 mM = 100%
[7] = Saccharification of lignocellulose 1 with Celluclast and endoglucanase; type: biochemical, Rice straw; details: 5 wt % Lignocellulose 1, pH 5.2, 50° C., 24 hours; 1.0 mg/mL cellulase + 0.1 mg/mL endoglucanase
Description: as §5, §2

[8] = Saccharification of lignocellulose 2 with Celluclast and endoglucanase; type: biochemical, Rice straw; details: 5 wt % Lignocellulose 2, pH 5.2, 50° C., 24 hours; 1.0 mg/mL cellulase + 0.1 mg/mL endoglucanase
Description: as §4, §2

[9] = Saccharification of lignocellulose 3 with Celluclast and endoglucanase; type: biochemical, Rice straw; details: 5 wt % Lignocellulose 3, pH 5.2, 50° C., 24 hours; 1.0 mg/mL cellulase + 0.1 mg/mL endoglucanase
Description: as §1, §2

[10] = 1% phosphoric acid swollen cellulose, pH 5.2, enzyme 0.5 μM, 1 hour, 50° C., glucose generated by each parent endoglucanase = 100%

Molecule	Concentration of glucose generated, Culture solution + Wild-type [1]	Concentration of glucose generated, Culture solution + Wild-type [2]	Concentration of glucose generated, Culture solution + Wild-type [3]	Relative activity [4, 10]	Relative activity to degrade phosphoric acid swollen cellulose ([5]; vanillin 0 mM)	Relative activity to degrade phosphoric acid swollen cellulose ([5]; vanillin 5 mM)	Relative activity to degrade phosphoric acid swollen cellulose ([5]; vanillin 10 mM)	Relative activity to degrade phosphoric acid swollen cellulose ([5]; vanillin 15 mM)	Relative activity to degrade phosphoric acid swollen cellulose ([6]; ferulic acid 0 mM)	Relative activity to degrade phosphoric acid swollen cellulose ([6]; ferulic acid 5 mM)	Relative activity to degrade phosphoric acid swollen cellulose ([6]; ferulic acid 10 mM)	Relative activity to degrade phosphoric acid swollen cellulose ([6]; ferulic acid 15 mM)	Concentration of glucose generated, Celluclast + Wild-type [7]	Concentration of glucose generated, Celluclast + Wild-type [8]	Concentration of glucose generated, Celluclast + Wild-type [9]	Concentration of glucose generated, Culture solution + Mutant [1]	Concentration of glucose generated, Culture solution + Mutant [2]	Concentration of glucose generated, Culture solution + Mutant [3]	Concentration of glucose generated, Celluclast + Mutant [7]	Concentration of glucose generated, Celluclast + Mutant [8]	other results
B1	10 g/L	8 g/L	9 g/L	100%	100%	40%	40%	40%	100%	60%	50%	50%	12 g/L	11 g/L	12 g/L						Relative activity ([4]; Comparative Example 2, technique similar to Example 3, parent endoglucanase = 100%): 100%
B2				100%	100%	95%	90%	90%	100%	100%	100%	95%				13 g/L	12 g/L	13 g/L	16 g/L	15 g/L	Concentration of glucose generated, Celluclast + Mutant [9]: 16 g/L
B3	8 g/L	9 g/L	8 g/L	100%	100%	50%	50%	45%	100%	50%	45%	40%	11 g/L	12 g/L	11 g/L						
B4				100%	100%	100%	100%	90%	100%	100%	100%	90%				11 g/L	12 g/L	11 g/L	14 g/L	15 g/L	Concentration of glucose generated, Celluclast + Mutant [9]: 14 g/L
